{"source": "paper PMC5698383", "about": "(Applied Biochemistry and Biotechnology, 2017)", "key": {"[1]": {"target": "Fructose 1,6-bisphosphatase II from Francisella tularensis (glpX gene product) (Francisella tularensis)", "assay": "SEC"}, "[2]": {"target": "Fructose 1,6-bisphosphatase II from Francisella tularensis (glpX gene product) (Francisella tularensis)", "assay": "SEC", "remark": "listed apart in the source"}}, "note": "Read-outs that look alike come from different tables or passages of the source."}
{"substance": "Fructose 1,6-bisphosphatase II from Francisella tularensis (glpX gene product) (enzyme)", "values": [{"measurement": "stoichiometry N", "setting": "[1]", "result": 2}, {"measurement": "stoichiometry N", "setting": "[2]", "result": 4}]}
